Results as given in US20020098524A1 (published 2002).

target: T1, human (h)TNF-α (human, UniProt P01375 77-233); assay: IAsys biosensor, dissociation in 10 mM HEPES/0.05% Tween
T1 construct: Bought purified protein; also called TNF-alpha; Tumor Necrosis Factor α
Experimental: The binding and dissociation of phage clone A1, amino acid sequence: RYWQDIP; Table 1, (SEQ ID NO: 3) to TNF-α was monitored using an lAsys AutoPlus Biosensor following the Labsystems Affinity Sensors lAsys Protocol 2.4 ‘Immobilization to Protein Layer: Thiol coupling to avidin’ (Thermo BioAnalysis Corp. Franklin, Mass.). Two cuvettes were first coated with avidin and one (the control) was then blocked with biotin. This was followed by activation of the lysine groups. A 15 μl aliquot of a 1 mg/ml (h)TNF-α solution was added to each cuvette. […] After blocking and washing, phage clone A1, RYWQDIP (SEQ ID NO: 3) was added to give a final titer of 5×10¹¹ pfu/ml.
The dissociation of the phage from the TNF-α is very slow with the dissociation constant estimated as koff<10⁻⁴ sec⁻¹ (10 mM HEPES/0.05% Tween). Washing with a 1×buffer concentrate (at the 70 min time point) only removed a small portion of the phage.

T1 sequence (P01375 77-233 limits assumed): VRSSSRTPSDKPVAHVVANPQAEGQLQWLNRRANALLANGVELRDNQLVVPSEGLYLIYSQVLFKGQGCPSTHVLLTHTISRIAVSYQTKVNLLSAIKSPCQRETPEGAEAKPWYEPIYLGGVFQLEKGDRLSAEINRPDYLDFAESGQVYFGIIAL

| Binder | koff [s⁻¹] |
| --- | --- |
| RYWQDIP (also called T1; phage peptide clone A1) [phage clone A1, amino acid sequence RYWQDIP] | < 0.0001 |

target: T1, human (h)TNF-α; assay: phage display selection on hTNF-α-coated tube, PCR of phage still bound after acid wash
Experimental: A thin-walled PCR tube was coated with the target human (h)TNF-α (BioSource International; Camarillo, Calif.) by incubating 100 μl of 0.5 mg/ml purified TNF-α in PBS overnight at 4° C. in the PCR tube. Excess unbound TNF-α was removed, and the tube was coated overnight at 4° C. with 100 μl of SuperBlock™ blocking buffer (Pierce: Rockford, Ill.) in Tris buffered saline (TBS). The anti-target (SuperBlock™ blocking buffer) was prepared in separate PCR tubes coated overnight at 4° C. with 100 μl of SuperBlock™.
Unbound phage were removed by washing the tube 5 times with 150 μl PBS containing 0.1% Tween-20 at room temperature. Low affinity binders were washed away by incubating with 60 μl of 0.2 M Glycine (pH 2.2) for 6 minutes followed by neutralization with 9 μl M Tris-Cl (pH 9.1). The acid washed population was retained for further analysis. The tube was then washed again 3 times with 150 μl of PBS.
This was due to too much template (i.e. phage) in the PCR reaction, and can be alleviated by decreasing the phage concentration or by decreasing the number of PCR cycles (FIG. 3). To decrease the amount of the 500-700 bp diffuse band, the PCR product was diluted appropriately for subsequent PCR reactions from this starting material to generate more products for sub-cloning purposes.

| Binder | binding result |
| --- | --- |
| ASTVGGL [T6 (ASTVGGL)] | binds |
| TMLPYRP [T7 (TMLPYRP)] | binds |
| AWHSPSV [T8 (AWHSPSV)] | binds |
| LTQSFSS [T9 (LTQSFSS)] | binds |
| THKNTLR [T10 (THKNTLR)] | binds |
| GQTHFHV [T11 (GQTHFHV)] | binds |
| LPILTQT [T12 (LPILTQT)] | binds |
| SILPVSH [T13 (SILPVSH)] | binds |
| LSQPIPI [T14 (LSQPIPI)] | binds |
| QPLRKLP [T15 (QPLRKLP)] | binds |
| APEPILA [T2 (APEPILA)] | binds |
| DMIMVSI [T3 (DMIMVSI)] | binds |
| WTPKPTQ [T4 (WTPKPTQ)] | binds |
| ATFPNQS [T5 (ATFPNQS)] | binds |
